Data from article PMC8563363 (Cell, 2021).

Target: T1, SMC1 (human, UniProt Q14683 1-1233)
T1 sequence: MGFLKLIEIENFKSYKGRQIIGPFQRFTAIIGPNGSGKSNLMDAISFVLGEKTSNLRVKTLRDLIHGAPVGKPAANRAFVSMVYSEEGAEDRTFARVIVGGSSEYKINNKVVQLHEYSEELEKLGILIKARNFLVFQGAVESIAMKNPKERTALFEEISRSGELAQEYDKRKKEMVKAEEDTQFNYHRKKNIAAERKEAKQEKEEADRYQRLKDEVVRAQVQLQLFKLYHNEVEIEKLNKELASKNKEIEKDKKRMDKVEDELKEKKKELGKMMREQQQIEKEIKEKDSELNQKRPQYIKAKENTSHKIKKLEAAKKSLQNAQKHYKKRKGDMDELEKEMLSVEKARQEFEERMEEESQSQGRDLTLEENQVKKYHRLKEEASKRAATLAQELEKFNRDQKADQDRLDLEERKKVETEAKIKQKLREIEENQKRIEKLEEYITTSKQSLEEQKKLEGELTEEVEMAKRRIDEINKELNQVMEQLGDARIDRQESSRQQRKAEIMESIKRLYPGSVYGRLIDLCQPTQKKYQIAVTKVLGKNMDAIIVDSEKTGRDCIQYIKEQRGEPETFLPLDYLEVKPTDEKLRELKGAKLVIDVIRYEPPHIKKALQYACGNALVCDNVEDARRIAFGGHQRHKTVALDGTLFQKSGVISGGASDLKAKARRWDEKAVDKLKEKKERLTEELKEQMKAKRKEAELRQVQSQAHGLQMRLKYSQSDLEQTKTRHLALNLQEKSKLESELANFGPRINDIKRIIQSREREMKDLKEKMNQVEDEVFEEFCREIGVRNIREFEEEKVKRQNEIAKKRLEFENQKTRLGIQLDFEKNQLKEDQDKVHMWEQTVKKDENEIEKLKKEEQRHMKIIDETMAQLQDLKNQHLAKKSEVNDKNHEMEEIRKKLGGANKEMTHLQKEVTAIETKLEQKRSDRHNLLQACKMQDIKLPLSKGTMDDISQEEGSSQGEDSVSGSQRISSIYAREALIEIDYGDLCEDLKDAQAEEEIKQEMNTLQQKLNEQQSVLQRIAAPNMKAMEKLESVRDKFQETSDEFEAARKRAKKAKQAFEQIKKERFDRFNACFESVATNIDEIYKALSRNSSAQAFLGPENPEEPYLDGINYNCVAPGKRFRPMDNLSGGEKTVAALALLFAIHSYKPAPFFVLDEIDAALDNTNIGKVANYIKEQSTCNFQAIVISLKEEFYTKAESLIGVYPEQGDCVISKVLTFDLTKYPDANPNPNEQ
Experiment: mass photometry

- binding result: binds
B1: SMC3 with a C-terminal Flag tag (natural protein)
chain: MYIKQVIIQGFRSYRDQTIVDPFSSKHNVIVGRNGSGKSNFFYAIQFVLSDEFSHLRPEQRLALLHEGTGPRVISAFVEIIFDNSDNRLPIDKEEVSLRRVIGAKKDQYFLDKKMVTKNDVMNLLESAGFSRSNPYYIVKQGKINQMATAPDSQRLKLLREVAGTRVYDERKEESISLMKETEGKREKINELLKYIEERLHTLEEEKEELAQYQKWDKMRRALEYTIYNQELNETRAKLDELSAKRETSGEKSRQLRDAQQDARDKMEDIERQVRELKTKISAMKEEKEQLSAERQEQIKQRTKLELKAKDLQDELAGNSEQRKRLLKERQKLLEKIEEKQKELAETEPKFNSVKEKEERGIARLAQATQERTDLYAKQGRGSQFTSKEERDKWIKKELKSLDQAINDKKRQIAAIHKDLEDTEANKEKNLEQYNKLDQDLNEVKARVEELDRKYYEVKNKKDELQSERNYLWREENAEQQALAAKREDLEKKQQLLRAATGKAILNGIDSINKVLDHFRRKGINQHVQNGYHGIVMNNFECEPAFYTCVEVTAGNRLFYHIVDSDEVSTKILMEFNKMNLPGEVTFLPLNKLDVRDTAYPETNDAIPMISKLRYNPRFDKAFKHVFGKTLICRSMEVSTQLARAFTMDCITLEGDQVSHRGALTGGYYDTRKSRLELQKDVRKAEEELGELEAKLNENLRRNIERINNEIDQLMNQMQQIETQQRKFKASRDSILSEMKMLKEKRQQSEKTFMPKQRSLQSLEASLHAMESTRESLKAELGTDLLSQLSLEDQKRVDALNDEIRQLQQENRQLLNERIKLEGIITRVETYLNENLRKRLDQVEQELNELRETEGGTVLTATTSELEAINKRVKDTMARSEDLDNSIDKTEAGIKELQKSMERWKNMEKEHMDAINHDTKELEKMTNRQGMLLKKKEECMKKIRELGSLPQEAFEKYQTLSLKQLFRKLEQCNTELKKYSHVNKKALDQFVNFSEQKEKLIKRQEELDRGYKSIMELMNVLELRKYEAIQLTFKQVSKNFSEVFQKLVPGGKATLVMKKGDVEGSQSQDEGEGSGESERGSGSQSSVPSVDQFTGVGIRVSFTGKQGEMREMQQLSGGQKSLVALALIFAIQKCDPAPFYLFDEIDQALDAQHRKAVSDMIMELAVHAQFITTTFRPELLESADKFYGVKFRNKVSHIDVITAEMAKDFVEDDTTHG
